Measurements reported in patent US20160068604A1 (University of Texas, published 2016).

Tests used:
[1] = molecular target: T1, human OX40 (human, UniProt P43489 29-277); test: flow cytometry on L/OX40 cells, FITC goat anti-human IgG
T1 construct: whole, on cells; also called hOX40; OX40 receptor
T1 sequence (looked up): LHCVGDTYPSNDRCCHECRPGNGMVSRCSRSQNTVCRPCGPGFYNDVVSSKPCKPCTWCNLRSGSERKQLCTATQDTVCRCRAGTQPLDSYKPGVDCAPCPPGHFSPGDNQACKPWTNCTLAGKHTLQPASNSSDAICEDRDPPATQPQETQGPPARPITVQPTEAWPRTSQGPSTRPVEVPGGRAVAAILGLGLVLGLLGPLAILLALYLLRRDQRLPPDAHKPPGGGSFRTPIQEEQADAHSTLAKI
Procedure: In a typical experiment, various concentrations of Ch119-43-1 were incubated with 10⁵ L/OX40 cells in PBS containing 0.5% BSA and 0.05% NaN₃ (FACS Buffer) for 1 hour at 4° C. Cells were then washed with ice-cold FACS Buffer and subjected to incubation with FITC-labeled goat anti-human IgG antibody for 30 min at 4° C. After washing with FACS Buffer, stained cells were analyzed using a FACScan flow cytometer (BD Biosciences, San Jose, Calif.).

[2] = molecular target: T1, human OX40; test: cell ELISA on dried L-hOX40 versus parental L cells, anti-mouse IgG Fc HRP
Procedure: In the experiment of FIG. 10, hOX40 hybridoma supernatants were screened against L-hOX40 versus L parental cells by ELISA. […] Plates were then frozen at −20° C. for at least one day before use. For antibody binding assays, frozen cells were rehydrated with PBS and washed with wash buffer containing PBS plus 0.05% Tween 20, and blocked with 2% BSA in wash buffer. Conditioned cells were then used for binding to OX40 antibody supernatants.

[3] = molecular target: T1, human OX40; test: FACS binding assay on L/OX40 cells, PE goat anti-human IgG
[4] = molecular target: T1, human OX40; test: FACS binding assay on L/hOX40 cells, PE goat anti-human IgG

B1: Chimeric 119-43-1 IgG1/kappa antibody (antibody, V domains shown)
VH: EVKLEESGGGLVQPGGSMKLSCAASGFTFSDAWMDWVRQSPEKGLEWVAEIRSKANNHATYYAESVNGRFTISRDDSKSSVYLQMNSLRAEDTGIYYCTWGEVFYFDYWGQGTTLTVSS
VL: DIQMTQSPSSLSASLGGKVTITCKSSQDINKYIAWYQHKPGKGPRLLIHYTSTLQPGIPSRFSGSGSGRDYSFSISNLEPEDIATYYCLQYDNLLTFGAGTKLELKR
notes: also called Ch119-43-1
EC50 [1]: 0.96 µg/mL

B2: mouse anti-human OX40 monoclonal antibody 119-122 (antibody, V domains shown)
VH: EVQLVESGGGLVQPGESLKLSCESNEYEFPSHDMSWVRKTPEKRLELVAAINSDGGSTYYPDTMERRFIISRDNTKKTLYLQMSSLRSEDTALYYCARHYDDYYAWFAYWGQGTLVTVSA
VL: DIVLTQSPASLAVSLGQRATISCRASKSVSTSGYSYMHWYQQKPGQPPKLLIYLASNLESGVPARFSGSGSGTDFTLNIHPVEEEDAATYYCQHSRELPLTFGAGTKLELK
notes: Mouse hybridoma antibody; also called Mouse122
binding result [2]: binds

B3: Chimeric 119-122 IgG1/kappa monoclonal antibody (antibody, V domains shown)
VH: B2 VH
VL: B2 VL
notes: Mouse variable regions with human gamma-1 and kappa constant regions (IgG1/kappa); also called Ch119
binding result [3]: binds

B4: Humanized 106-222 IgG1/kappa monoclonal antibody (antibody, V domains shown)
VH: QVQLVQSGSELKKPGASVKVSCKASGYTFTDYSMHWVRQAPGQGLKWMGWINTETGEPTYADDFKGRFVFSLDTSVSTAYLQISSLKAEDTAVYYCANPYYDYVSYYAMDYWGQGTTVTVSS
VL: DIQMTQSPSSLSASVGDRVTITCKASQDVSTAVAWYQQKPGKAPKLLIYSASYLYTGVPSRFSGSGSGTDFTFTISSLQPEDIATYYCQQHYSTPRTFGQGTKLEIK
notes: Human IgG1/kappa; also called Hu222
binding result [4]: binds

B5: mouse anti-human OX40 monoclonal antibody 106-222 (antibody, V domains shown)
VH: QIQLVQSGPELKKPGETVKISCKASGYTFTDYSMHWVKQAPGKGLKWMGWINTETGEPTYADDFKGRFAFSLETSASTAYLQINNLKNEDTATYFCANPYYDYVSYYAMDYWGHGTSVTVSS
VL: DIVMTQSHKFMSTSVRDRVSITCKASQDVSTAVAWYQQKPGQSPKLLIYSASYLYTGVPDRFTGSGSGTDFTFTISSVQAEDLAVYYCQQHYSTPRTFGGGTKLEIK
notes: Mouse hybridoma antibody; also called Mouse222
binding result [2]: binds

B6: Chimeric 106-222 IgG1/kappa monoclonal antibody (antibody, V domains shown)
VH: B5 VH
VL: B5 VL
notes: Mouse variable regions with human gamma-1 and kappa constant regions (IgG1/kappa); also called Ch222
binding result [4]: binds

B7: Humanized 119-122 IgG1/kappa monoclonal antibody (antibody, V domains shown)
VH: EVQLVESGGGLVQPGGSLRLSCAASEYEFPSHDMSWVRQAPGKGLELVAAINSDGGSTYYPDTMERRFTISRDNAKNSLYLQMNSLRAEDTAVYYCARHYDDYYAWFAYWGQGTMVTVSS
VL: EIVLTQSPATLSLSPGERATLSCRASKSVSTSGYSYMHWYQQKPGQAPRLLIYLASNLESGVPARFSGSGSGTDFTLTISSLEPEDFAVYYCQHSRELPLTFGGGTKVEIK
notes: Human IgG1/kappa; also called Hu119
binding result [3]: binds
